Measurements published in PMC13022382 (Nature Communications, 2026).
Primed or numbered codes have the meaning given here. No end group written: not given here. *: point of attachment. TMR‑6COOH = tetramethylrhodamine, CN(C)c1ccc2c(-c3cc(C(=O)*)ccc3C(=O)[O-])c3ccc(N(C)C)cc3[o+]c2c1; Biotin = O=C1N[C@H]2[C@H](CS[C@H]2CCCCC(=O)*)N1; PEG2′ = Fmoc-PEG2-OH spacer; PEG4′ = not defined here

T1: biotin-Hpep9 conjugate
T1 chain: {Biotin-PEG4′}-RGWSWREMFRLFRT

T2: biotin-Hpep11 conjugate
T2 chain: {Biotin-PEG4′}-SKRDWREMFRLFRT

T3: TMR-Hpep9 conjugate
T3 peptide: {TMR‑6COOH-PEG2′}-RGWSWREMFRLFRT

T4: TMR-Hpep11 conjugate
T4 peptide: {TMR‑6COOH-PEG2′}-SKRDWREMFRLFRT


Legend:
biotin-Hpep9 conjugate = biological target: T1, biotin-Hpep9 conjugate; assay: BLI
biotin-Hpep11 conjugate = biological target: T2, biotin-Hpep11 conjugate; assay: BLI
TMR-Hpep9 conjugate = biological target: T3, TMR-Hpep9 conjugate; assay: fluorescence polarisation
TMR-Hpep11 conjugate = biological target: T4, TMR-Hpep11 conjugate; assay: fluorescence polarisation

Kd (biotin-Hpep9 conjugate) [nM]	koff (biotin-Hpep9 conjugate) [s⁻¹]	kon (biotin-Hpep9 conjugate) [M⁻¹ s⁻¹]	Kd (biotin-Hpep11 conjugate) [nM]	koff (biotin-Hpep11 conjugate) [s⁻¹]	kon (biotin-Hpep11 conjugate) [M⁻¹ s⁻¹]	Kd (TMR-Hpep9 conjugate) [nM]	Kd (TMR-Hpep11 conjugate) [nM]	Binder
4.86	0.00104	214000	10.6	0.000687	64900			TMR-labeled cpHaloΔ3 (domain or fragment, labeled with the HaloTag ligand CA-TMR (chloroalkane derivative of tetramethylrhodamine)) EKKGDVGRKLIIDQNVFIEGTLPMGVVRPLTEEEMDHYREPFLNPKDREPLWRFPNELPIAGEPANIVALVEEYMDWLHQSPVPKLLFWGTPGVLIPPAEAARLAKSLPNCKAVDIGPGLNLLQEDNPDLIGSEIARWLSTLEIKSKYDRDQILKIIAELEKKTGGSIGTGFPFDPHYVEVLGSRMHYVDVGPRDGTPVLFLHGNPTSSYVWRNIIPHVAPTHRCIAPDLIGMGKSDKPDLGYFFDDHVRFMDAFIEALGLEEVVLVIHDWGSALGFHWAKRHPERVKGIAFMEFIRPIPTWDEWGDVE
18.8	0.00149	78900			50000	3.26	1.34	SiR-labeled cpHaloΔ3 (domain or fragment, labeled with the HaloTag ligand CA-SiR (chloroalkane derivative of silicon rhodamine)) EKKGDVGRKLIIDQNVFIEGTLPMGVVRPLTEEEMDHYREPFLNPKDREPLWRFPNELPIAGEPANIVALVEEYMDWLHQSPVPKLLFWGTPGVLIPPAEAARLAKSLPNCKAVDIGPGLNLLQEDNPDLIGSEIARWLSTLEIKSKYDRDQILKIIAELEKKTGGSIGTGFPFDPHYVEVLGSRMHYVDVGPRDGTPVLFLHGNPTSSYVWRNIIPHVAPTHRCIAPDLIGMGKSDKPDLGYFFDDHVRFMDAFIEALGLEEVVLVIHDWGSALGFHWAKRHPERVKGIAFMEFIRPIPTWDEWGDVE
						26.3	38.3	cpHaloΔ2 (His10-tagged) (domain or fragment) DVGRKLIIDQNVFIEGTLPMGVVRPLTEEEMDHYREPFLNPKDREPLWRFPNELPIAGEPANIVALVEEYMDWLHQSPVPKLLFWGTPGVLIPPAEAARLAKSLPNCKAVDIGPGLNLLQEDNPDLIGSEIARWLSTLEIKSKYDRDQILKIIAELEKKTGGSIGTGFPFDPHYVEVLGSRMHYVDVGPRDGTPVLFLHGNPTSSYVWRNIIPHVAPTHRCIAPDLIGMGKSDKPDLGYFFDDHVRFMDAFIEALGLEEVVLVIHDWGSALGFHWAKRHPERVKGIAFMEFIRPIPTWDEW
